Residue numbers refer to the chain shown, from its start. In names and notes the source's numbering stands.
T1: thermolysin (Bacillus thermoproteolyticus, UniProt P00800)
T1 construct: purchased Sigma
T1 sequence (P00800 233-548): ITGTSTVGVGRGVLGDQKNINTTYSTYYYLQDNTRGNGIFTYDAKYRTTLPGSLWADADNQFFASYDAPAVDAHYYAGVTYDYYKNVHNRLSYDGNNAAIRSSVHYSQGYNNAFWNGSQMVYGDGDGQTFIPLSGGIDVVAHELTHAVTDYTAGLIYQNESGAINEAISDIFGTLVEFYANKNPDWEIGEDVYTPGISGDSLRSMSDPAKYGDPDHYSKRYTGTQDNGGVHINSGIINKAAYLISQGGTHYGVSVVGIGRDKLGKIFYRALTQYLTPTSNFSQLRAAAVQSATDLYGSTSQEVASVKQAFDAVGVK

B1: Q128I: single-substitution thermolysin variant (SEQ ID NO:3 numbering) (protein, listed as Geobacillus caldoproteolyticus)
chain: T1 sequence (P00800 233-548) with Q128I
B2: T049N: single-substitution thermolysin variant (SEQ ID NO:3 numbering) (protein, listed as Geobacillus caldoproteolyticus)
chain: T1 sequence (P00800 233-548) with T49N
B3: Q128M: single-substitution thermolysin variant (SEQ ID NO:3 numbering) (protein, listed as Geobacillus caldoproteolyticus)
chain: T1 sequence (P00800 233-548) with Q128M
B4: Q128Y: single-substitution thermolysin variant (SEQ ID NO:3 numbering) (protein, listed as Geobacillus caldoproteolyticus)
chain: T1 sequence (P00800 233-548) with Q128Y
B5: Y151N: single-substitution thermolysin variant (SEQ ID NO:3 numbering) (protein, listed as Geobacillus caldoproteolyticus)
chain: T1 sequence (P00800 233-548) with Y151N
B6: Q128V: single-substitution thermolysin variant (SEQ ID NO:3 numbering) (protein, listed as Geobacillus caldoproteolyticus)
chain: T1 sequence (P00800 233-548) with Q128V
B7: Y151T: single-substitution thermolysin variant (SEQ ID NO:3 numbering) (protein, listed as Geobacillus caldoproteolyticus)
chain: T1 sequence (P00800 233-548) with Y151T
B8: T049Q: single-substitution thermolysin variant (SEQ ID NO:3 numbering) (protein, listed as Geobacillus caldoproteolyticus)
chain: T1 sequence (P00800 233-548) with T49Q
B9: T278M: single-substitution thermolysin variant (SEQ ID NO:3 numbering) (protein, listed as Geobacillus caldoproteolyticus)
chain: T1 sequence (P00800 233-548) with T278M
B10: Q273Y: single-substitution thermolysin variant (SEQ ID NO:3 numbering) (protein, listed as Geobacillus caldoproteolyticus)
chain: T1 sequence (P00800 233-548) with Q273Y

Tested on: not listed separately
Experiment: Stability assay in 25% TIDE 2X detergent without DTPA (residual Abz-AGLA-Nba protease activity)
Type: physicochemical
Conditions: 180 min at 50°C; variant residual AGLA activity divided by wild-type residual activity
How it was run: (§1)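 Thermolysin variant culture supernatants stressed in TIDE 2× detergent, with or without DTPA: 60 min at 32° C or 180 min at 50° C. Residual versus unstressed activity on Abz-AGLA-Nba read kinetically at 25° C (Ex 350/Em 420). Performance index is variant residual activity divided by wild-type thermolysin residual activity.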

Point of comparison: B7, “PI (relative stability), 25% TIDE 2X without DTPA” value 1.10. Against it:
- B1 — higher, 1.19
- B2 — lower, 1.07
- B3 — lower, 1.09
- B4 — lower, 1.05
- B5 — lower, 1.05
- B6 — higher, 1.20
- B8 — lower, 1.07

Tested on: not given
Experiment: not given
Conditions: TIDE 2X 0.78 g/l, 6 gpg, pH 8.2, 30 min at 20°C, A405; variant vs wild-type thermolysin at same protein concentration
Method: Thermolysin containing protease samples were obtained from filtered broth of cultures grown in microtiter plates for 3 days at 37° C. with shaking at 280 rpm under humidified aeration.
• Thermolysin containing culture supernatants (˜100-200 μg protein per ml) • TIDE® 2× (nil enzymes) detergent (P&G) • Dilution Buffer (10 mM NaCl, 0.1 mM CaCl2, 0.005% TWEEN®-80) The equipment used was a Biomek FX Robot (Beckman Coulter), a SpectraMAX MTP Reader (type 340; Molecular Devices), and an iEMS incubator/shaker (Thermo/Labsystems). MTPs were obtained from Costar (type 9017). TIDE® 2× Liquid Detergent Preparation (US Conditions):
Milli-Q water was adjusted to 6 gpg water hardness using a (Ca/Mg 3:1) hardness stock solution (282.3 g/L CaCl2.2H20, 130.1 g/L MgCl2.6H2O), 0.78 g/1 detergent TIDE® 2× was added, and the detergent solution was stirred vigorously for at least 15 minutes. Then, 5 mM HEPES was added and the pH adjusted to 8.2.
Microswatches of ¼ inch circular diameter were obtained from CFT (Vlaardingen, The Netherlands).
Two microswatches were placed vertically into each well of a 96-well microtiter plate to expose the whole surface area (i.e., not flat on the bottom of the well).
The incubator was set to 20° C. The filtered culture broth samples were tested at an appropriate concentration by dilution with a mixture of 10 mM NaCl, 0.1 mM CaCl2, 0.005% TWEEN®-80 solution. The detergent solution was prepared as described above. Then, 190 μl of detergent solution were added to each well of the MTP, containing microswatches. To this mixture, 10 μl of diluted enzyme solution were added to each well (to provide a total volume of 200 μl/well). The MTP was covered with a plate seal and placed in an incubator for 30 minutes at 20° C., with agitation at 1400 rpm (iEMS incubator). Following incubation under the appropriate conditions, 100 μl of solution from each well was removed and placed into a new MTP. Subsequently this MTP, containing 100 μl of solution/well, was read at 405 nm in a MTP-Reader. Blank controls, containing 2 microswatches/well and detergent, without the addition of thermolysin containing samples, were also included in the test.
The observed absorbance value was corrected for the blank value (obtained after incubation of microswatches in the absence of added enzyme). The resulting absorbance was a measure for the hydrolytic activity. For each sample (thermolysin or a variant) the performance index (PI) was calculated. The performance index is a comparison of the performance of the variant (actual value) and the standard thermolysin enzyme (theoretical value) at the same protein concentration. In addition, the theoretical values were calculated, using the parameters of the Langmuir equation of the standard enzyme.
C. Stability Assay in the Presence of Detergent
In this example, experiments were conducted to determine the stain removal performance of various singly substituted thermolysin (also referred to herein as Proteinase-T or PrT) variants. As described in Example 1, the stain cleaning performance of thermolysin variants was done utilizing a blood/milk/ink (BMI) microswatch assay. Briefly the cleaning performance of chosen single-substitution thermolysin variants was assessed in a TIDE® 2× microswatch assay.

Point of comparison: B7, “PI (performance index), stain removal” value 1.13. Against it:
- B1 — higher, 1.34
- B2 — lower, 1.10
- B3 — lower, 1.10
- B4 — the same, 1.13
- B5 — higher, 1.19
- B9 — lower, 1.02
- B10 — lower, 1.09
- B6 — lower, 1.07
- B8 — higher, 1.30

Target: T1, thermolysin
Experiment: Stabilisation of thermolysin in Unilever ALL Small and Mighty detergent by metalloproteinase inhibitors (SDS-PAGE)
Conditions: 500 μM inhibitor, thermolysin 800 μg/ml in Unilever ALL Small and Mighty, FIG. 8
Method: Zinc Chloride, Phosphoramidon, Galardin are known metalloproteinase inhibitors. They were purchased from Sigma and dissolved in water or DMSO. Different concentrations of the inhibitors were premixed with thermolysin (also referred to as Proteinase-T or PrT) for 10 min at room temperature. Then the inhibitors were added into Unilever detergent ALL Small and Mighty so that the final concentration of thermolysin was 800 μg/ml in a total volume of 1 ml. At different time points, samples were taken and precipitated with TCA. Briefly, 10 μl sample of detergent with enzyme was added into 500 μl of 0.2 N HCl on ice, and then 500 μl of 20% TCA was added. The tubes were mixed and incubated on ice for 20 min. The pellet was collected and washed with 90% ice-cold acetone. The pellet was dissolved in sample loading buffer (Invitrogen) for SDS-PAGE analysis.

For CC(C)C[C@H](NP(=O)(O)O[C@@H]1O[C@@H](C)[C@H](O)[C@@H](O)[C@H]1O)C(=O)N[C@@H](Cc1c[nH]c2ccccc12)C(=O)O [Phosphoramidon], the “stabilisation of thermolysin in detergent” value was “significantly stabilize thermolysin in detergent”.

Same assay, conditions: 1 mM inhibitor, thermolysin 800 μg/ml in Unilever ALL Small and Mighty, FIG. 8

In the case of CNC(=O)[C@H](Cc1c[nH]c2ccccc12)NC(=O)[C@@H](CC(=O)NO)CC(C)C [Galardin], the “stabilisation of thermolysin in detergent” value is reported as “significantly stabilize thermolysin in detergent”.

Tested on: not listed separately
Experiment: Stability assay in 25% TIDE 2X detergent with DTPA (residual Abz-AGLA-Nba protease activity)
Type: physicochemical
Conditions: 60 min at 32°C; variant residual AGLA activity divided by wild-type residual activity
How it was run: as §1

Point of comparison: B5, “PI (relative stability), 25% TIDE 2X with DTPA” value 1.25. Against it:
- B1 — higher, 1.32
- B2 — lower, 1.03
- B3 — lower, 1.06
- B4 — lower, 1.09
- B9 — lower, 1.09
- B10 — lower, 1.05
- B6 — higher, 1.45
- B7 — lower, 1.18
